First the molecules themselves.
B1: bCD38 (bovine CD38/NAD+glycohydrolase) (Bos taurus) (protein)
chain: YKWHYSGLNRWHGAGSTADFQKIIQERCDTYTQTIRPGSRSRNCQAIRQAFMSAFISKDPCKATKEDYNSLINLAPPTVPCGQQVFWSKTKELAHEYAKRRRLMTLEDTLLGYLADGLRWCGEPGSSDLNIWSCPDWRKDCRTNYLSVFWEVLSERFAESACNTVRVVLNGSLENAFDSMSIFGRVEAPNLRPQVELEAWLVHDTGKPPSDSCSGSSIRKLKSILDGRNVKFRCMDNLSRDQFLQRS
notes: soluble ecto-domain residues 32-278 (first 31 residues removed), alpha-factor secretion signal, Pichia pastoris GS115 or X33, mono-N-glycosylated at Asn201, back-to-back homodimer in crystal
B2: bCD38 (bovine CD38/NAD+glycohydrolase) (Bos taurus; K120A) (protein)
chain: B1 chain with K89A
notes: as for B1
B3: bCD38 (bovine CD38/NAD+glycohydrolase) (Bos taurus; E218Q) (protein)
chain: B1 chain with E187Q
notes: as for B1
B4: bCD38 (bovine CD38/NAD+glycohydrolase) (Bos taurus; R216A) (protein)
chain: B1 chain with R185A
notes: as for B1
B5: bCD38 (bovine CD38/NAD+glycohydrolase) (Bos taurus; S185A) (protein)
chain: B1 chain with S154A
notes: as for B1
B6: bCD38 (bovine CD38/NAD+glycohydrolase) (Bos taurus; W168A) (protein)
chain: B1 chain with W137A
notes: as for B1

A word on the Km: it is the concentration of substrate that gives half-maximal velocity. For orientation: kcat means the number of substrate molecules converted per active site and unit of time at saturation. The kcat/Km is the turnover number divided by the Michaelis constant.

Where a chain is given by its changes, count along the chain named. In names and notes the source's numbering stands.

Substrate in this data set: NC(=O)c1ccc[n+]([C@@H]2O[C@H](COP(=O)(O)OP(=O)(O)OC[C@H]3O[C@@H](n4cnc5c(N)ncnc54)[C@H](O)[C@@H]3O)[C@@H](O)[C@H]2O)c1
Nature of the data set: radiometric HPLC assay, initial rates, Michaelis-Menten fit. The settings on record: 10 mM potassium phosphate pH 7.4, 37°C, 14C-labelled NAD+ tracer. It counts as biochemical, Bos taurus. An excerpt: radiometric HPLC assay, initial rates, Michaelis-Menten fit on bCD38 (bovine CD38/NAD+glycohydrolase)
With B1, the Km is 17.1 ± 0.3 µM, the kcat worked out at 57.9 ± 1.9 s⁻¹ and the kcat/Km was 3.38e+06 ± 130000 M⁻¹ s⁻¹.
The matching figures for B2: 27.7 ± 3.4 µM, 47.1 ± 2.1 s⁻¹ and 1.7e+06 ± 220000 M⁻¹ s⁻¹.
Turning to B3, the Km was 24.7 ± 5.7 µM, the kcat amounted to 0.03 ± 0.002 s⁻¹ and the catalytic efficiency (kcat/Km) is 1210 ± 300 M⁻¹ s⁻¹.
The matching figures for B4: 22.9 ± 3.4 µM, 25.4 ± 1.1 s⁻¹ and 1.1e+06 ± 170000 M⁻¹ s⁻¹.
The corresponding values for B5 are 18.7 ± 2.8 µM, 38.2 ± 1.3 s⁻¹ and 2.04e+06 ± 310000 M⁻¹ s⁻¹.
The corresponding values for B6 are 24.6 ± 4.2 µM, 19.6 ± 0.9 s⁻¹ and 800000 ± 140000 M⁻¹ s⁻¹.

For the origin of these results see paper PMC3329556, “Insights into the Mechanism of Bovine CD38/NAD+Glycohydrolase from the X-Ray Structures of Its Michaelis Complex and Covalently-Trapped Intermediates” (PLoS ONE, 2012).
